Source: PMC4598080

Key:
[1] = biological target: T1, Rpl5 (uL18) (S. cerevisiae (endogenous in yeast cells)) (UniProt P26321)
T1 sequence: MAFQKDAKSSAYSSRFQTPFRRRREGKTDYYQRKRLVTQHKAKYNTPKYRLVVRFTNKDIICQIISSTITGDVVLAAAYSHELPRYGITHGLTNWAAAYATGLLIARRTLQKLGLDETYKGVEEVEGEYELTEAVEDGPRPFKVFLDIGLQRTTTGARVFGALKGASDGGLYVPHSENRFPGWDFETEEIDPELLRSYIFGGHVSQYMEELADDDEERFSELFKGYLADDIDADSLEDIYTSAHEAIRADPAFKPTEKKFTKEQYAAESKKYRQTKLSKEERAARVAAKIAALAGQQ

[2] = biological target: Rpl4 (uL4), non-ribosome bound (S. cerevisiae (endogenous in yeast cells)) (UniProt P10664)
Chain of UniProt P10664 (P10664 whole entry): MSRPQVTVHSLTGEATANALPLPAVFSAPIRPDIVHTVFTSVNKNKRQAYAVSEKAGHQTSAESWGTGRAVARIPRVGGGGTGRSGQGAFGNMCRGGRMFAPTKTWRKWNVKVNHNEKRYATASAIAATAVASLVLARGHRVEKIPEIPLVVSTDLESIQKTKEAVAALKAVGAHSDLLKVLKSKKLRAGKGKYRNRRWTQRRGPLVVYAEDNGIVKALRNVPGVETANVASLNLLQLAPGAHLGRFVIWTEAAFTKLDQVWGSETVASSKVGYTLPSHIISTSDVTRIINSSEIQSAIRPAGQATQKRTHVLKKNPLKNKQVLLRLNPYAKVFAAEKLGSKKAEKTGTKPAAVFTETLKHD

B1: Syo1-FTpA (natural protein)
chain: MGRSKKRSRASSSRLNPLRKAGSNDNNKDTNVVNKKLQPLLQNLSSVVPNDRSIALSSISVLCEDAHMRQLLLKEKLVPIILNKLLNDSNSDIVVESFGLLRNLSLEEGYDVSIYLWRSDIWTSITSNFGRIVESLSALQAAEQQPQLKPAGKSKIESKRLLFDFADNLLSLVVALSNGSDDILNEILTESKINEIFQVISQLLKYGVEKLPINLFNTTLDLIYDLSSESFEFIDHVSNNELLSQFLNGLSPALHPQANELTKVLIEGIHCQFLDMKITYDQCNKMIHSVCHSINNIDPVQLVNDINNPVEIGPATSKDESSKVITKIKDYNAKRNESMIKLQSIEIAIDLITAIIEIVASKYESPESQEVAIPEELINTLTNFLPHVFMILKDTFTSRILIGWNNLIWLFVSLSLTELSGELLTTLWSYVTQLDSQDDLSIKIGRMGCIWALLKLIFPDGAFESENRALINVQMLNNSGFARGIIEEFQNNNDLELQQKCINVLSTYAMIQGQIDANKEIGQFFIQTLTQLNVRPEILIEMTNSLFQIYGDASYDYNEPIFVRGGFLSILKDQVVPNLRQQFKMVDKNKNPELKERCHDCFTTLDSFIHYKMNENSTNQ
enrichment of the RPL5 mRNA, compared to the non-specific r-protein mRNAs, in the Syo1-FTpA IgG-Sepharose purification from extracts of cycloheximide-treated cells (real-time qRT-PCR) [1]: 150 fold

B2: C-terminally TAP-tagged Acl4 (natural protein)
chain: MSELEATIRQAKEALAENNAKKALKILKPFKSSLKKENANNVILNEVFADAYLDNGQVEKAYPILARACELDPEGQVGGPDKFFTMGQIMGGQDGVSIITRGIMNISNTGGEMLTNVQVEKIVGGLLSVIEIWMTDLCMEPNAEEQCEELIQKAMELTEGKSPETWSTLGSIKISQQKFGEAYEAFSQAWNFFELKKQEIGSGINENGDTTQKAGLQSEYVDLLQPLLSLTKMCLEVGAYEVALKVIAAVRDIDEDNIEGYYLEGFTYYLMSKLEIFKLNNPEVSLRPENIYEFNQLIQEVPLDLSHEPISQLIYDSRLALSFALQAGVNADSKDEIVQELLGGANALLQEIGGPLDPSELTQIKKGDLVNENEDLEELDIEEEYSD
enrichment of the RPL4 mRNA, compared to the non-specific r-protein mRNAs, in the Acl4-TAP IgG-Sepharose purification from extracts of cycloheximide-treated cells (real-time qRT-PCR) [2]: 150 fold
